The data set concerns the target T1, HNE specific peptide GSGSGGGAAPVAAKGGGSGSC (not fully specified).
T1 chain: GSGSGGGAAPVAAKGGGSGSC

B1: recombinant Cathepsin-G enzyme (protein)
chain: IIGGRESRPHSRPYMAYLQIQSPAGQSRCGGFLVREDFVLTAAHCWGSNINVTLGAHNIQRRENTQQHITARRAIRHPQYNQRTIQNDIMLLQLSRRVRRNRNVNPVALPRAQEGLRPGTLCTVAGWGRVSMRRGTDTLREVQLRVQRDRQCLRIFGSYDPRRQICVGDRRERKAAFKGDSGGPLLCNNVAHGIVSYGKSSGVPPEVFTRVSSFLPWIRTTMRS
In the case of B1, the “cleavage on the multiplex sensor, Cathepsin-G alone at 100 ng/mL” value is on record as “there was no cleavage seen in the bottom band” and the “cleavage on the multiplex sensor, ratio 100 uL Cathepsin-G to 0 uL HNE” value is on record as “there was no reaction seen on the HNE sensor (Bottom band)”.

B2: recombinant Human Neutrophil Elastase (HNE) (protein)
chain: IVGGRRARPHAWPFMVSLQLRGGHFCGATLIAPNFVMSAAHCVANVNVRAVRVVLGAHNLSRREPTRQVFAVQRIFENGYDPVNLLNDIVILQLNGSATINANVQVAQLPAQGRRLGNGVQCLAMGWGLLGRNRGIASVLQELNVTVVTSLCRRSNVCTLVRGRQAGVCFGDSGSPLVCNGLIHGIASFVRGGCASGLYPDAFAPVAQFVNWIDSIIQ
In the case of B2, the “cleavage on the multiplex sensor, HNE alone at 100 ng/mL” value is reported as “maximum reaction was seen in the bottom band containing HNE”; the “cleavage on the multiplex sensor, ratio 0 uL Cathepsin-G to 100 uL HNE” value is “maximum cleavage was seen on the HNE sensor (Bottom band) where a golden color change was visible”; the “detection limit of cleavage in spiked saliva (colorimetric)” value is listed as “The limits of detection for both spiked proteases were comparable to those obtained with the purified proteases”; the “detection limit of proteolytic cleavage of the peptide-magnetic bead layer (colorimetric, visible bare gold surface)” value was “detection limit to be as low as 1 pg/mL for HNE”.

The values above are taken from patent US10337047.
